The values below come from patent US20250171535A1, “COMPOSITIONS AND METHODS FOR DEPLETION OF DISEASED HEMATOPOIETIC STEM CELLS” (Jasper Therapeutics, Inc., priority 2022, published 2025).

Series [1] in a line: Clinical study: safety and tolerability in higher risk MDS or AML patients. As to conditions: 0.6 mg/kg intravenously. It is filed as in vivo, human. On the procedure:
(§1) Nine patients having either higher risk MDS or AML were treated with a single dose of 0.6 mg/kg JSP191 administered intravenously.

The test system of series [2] is diseased HSC cells (CD34+CD45RA-CD117+ HSCs). In words: Clinical study: depletion of diseased stem and progenitor cells in higher risk MDS or AML patients. It is filed as in vivo, human. To be noted: nine higher risk MDS or AML patients; single dose 0.6 mg/kg intravenously; 10-14 days post-treatment. As for the experimental part:
FIG. 2 is a bar graph of the percent (%) depletion of CD34+CD45RA-CD117+ cells in nine myelodysplastic syndrome (MDS) and acute myeloid leukemia (AML) patients treated with a single dose of anti-c-kit antibody, measured 10-14 days post-treatment.
as §1

On to “JSP191: aglycosylated IgG1 humanized anti-c-kit (CD117) antibody, humanized form of murine SR1; heavy chain SEQ ID NO: 2, light chain SEQ ID NO: 3”, for which, in series [1], the JSP191-related infusion reactions result was “No significant JSP191-related infusion reactions were observed” and the adverse events entry was “no significant adverse events were observed”. The safety and tolerability entry in series [1] (ongoing clinical trial) is “safe and well-tolerated”. Further, the “depletion of diseased HSC cells (CD34+CD45RA-CD117+ HSCs)” value in series [2] is on record as 30-95%.
